Measured values published in patent US10286078B2, “Modified therapeutic agents and compositions thereof” (THE CALIFORNIA INSTITUTE FOR BIOMEDICAL RESEARCH, priority 2013, dated 2019).
Like-named read-outs stand apart in the source and are kept apart here. Where no end group is shown, it is not given here.

Assays:
human Nav1.7 = target: T1, human Nav1.7 (Homo sapiens, UniProt Q15858); assay: NaV 1.7 current measurement on IonFlux HT; type: cell-based; settings: HEK293 cells overexpressing alpha and beta-1 subunits of human Nav1.7
T1 construct: host or cells: HEK293
T1 sequence (Q15858 whole entry): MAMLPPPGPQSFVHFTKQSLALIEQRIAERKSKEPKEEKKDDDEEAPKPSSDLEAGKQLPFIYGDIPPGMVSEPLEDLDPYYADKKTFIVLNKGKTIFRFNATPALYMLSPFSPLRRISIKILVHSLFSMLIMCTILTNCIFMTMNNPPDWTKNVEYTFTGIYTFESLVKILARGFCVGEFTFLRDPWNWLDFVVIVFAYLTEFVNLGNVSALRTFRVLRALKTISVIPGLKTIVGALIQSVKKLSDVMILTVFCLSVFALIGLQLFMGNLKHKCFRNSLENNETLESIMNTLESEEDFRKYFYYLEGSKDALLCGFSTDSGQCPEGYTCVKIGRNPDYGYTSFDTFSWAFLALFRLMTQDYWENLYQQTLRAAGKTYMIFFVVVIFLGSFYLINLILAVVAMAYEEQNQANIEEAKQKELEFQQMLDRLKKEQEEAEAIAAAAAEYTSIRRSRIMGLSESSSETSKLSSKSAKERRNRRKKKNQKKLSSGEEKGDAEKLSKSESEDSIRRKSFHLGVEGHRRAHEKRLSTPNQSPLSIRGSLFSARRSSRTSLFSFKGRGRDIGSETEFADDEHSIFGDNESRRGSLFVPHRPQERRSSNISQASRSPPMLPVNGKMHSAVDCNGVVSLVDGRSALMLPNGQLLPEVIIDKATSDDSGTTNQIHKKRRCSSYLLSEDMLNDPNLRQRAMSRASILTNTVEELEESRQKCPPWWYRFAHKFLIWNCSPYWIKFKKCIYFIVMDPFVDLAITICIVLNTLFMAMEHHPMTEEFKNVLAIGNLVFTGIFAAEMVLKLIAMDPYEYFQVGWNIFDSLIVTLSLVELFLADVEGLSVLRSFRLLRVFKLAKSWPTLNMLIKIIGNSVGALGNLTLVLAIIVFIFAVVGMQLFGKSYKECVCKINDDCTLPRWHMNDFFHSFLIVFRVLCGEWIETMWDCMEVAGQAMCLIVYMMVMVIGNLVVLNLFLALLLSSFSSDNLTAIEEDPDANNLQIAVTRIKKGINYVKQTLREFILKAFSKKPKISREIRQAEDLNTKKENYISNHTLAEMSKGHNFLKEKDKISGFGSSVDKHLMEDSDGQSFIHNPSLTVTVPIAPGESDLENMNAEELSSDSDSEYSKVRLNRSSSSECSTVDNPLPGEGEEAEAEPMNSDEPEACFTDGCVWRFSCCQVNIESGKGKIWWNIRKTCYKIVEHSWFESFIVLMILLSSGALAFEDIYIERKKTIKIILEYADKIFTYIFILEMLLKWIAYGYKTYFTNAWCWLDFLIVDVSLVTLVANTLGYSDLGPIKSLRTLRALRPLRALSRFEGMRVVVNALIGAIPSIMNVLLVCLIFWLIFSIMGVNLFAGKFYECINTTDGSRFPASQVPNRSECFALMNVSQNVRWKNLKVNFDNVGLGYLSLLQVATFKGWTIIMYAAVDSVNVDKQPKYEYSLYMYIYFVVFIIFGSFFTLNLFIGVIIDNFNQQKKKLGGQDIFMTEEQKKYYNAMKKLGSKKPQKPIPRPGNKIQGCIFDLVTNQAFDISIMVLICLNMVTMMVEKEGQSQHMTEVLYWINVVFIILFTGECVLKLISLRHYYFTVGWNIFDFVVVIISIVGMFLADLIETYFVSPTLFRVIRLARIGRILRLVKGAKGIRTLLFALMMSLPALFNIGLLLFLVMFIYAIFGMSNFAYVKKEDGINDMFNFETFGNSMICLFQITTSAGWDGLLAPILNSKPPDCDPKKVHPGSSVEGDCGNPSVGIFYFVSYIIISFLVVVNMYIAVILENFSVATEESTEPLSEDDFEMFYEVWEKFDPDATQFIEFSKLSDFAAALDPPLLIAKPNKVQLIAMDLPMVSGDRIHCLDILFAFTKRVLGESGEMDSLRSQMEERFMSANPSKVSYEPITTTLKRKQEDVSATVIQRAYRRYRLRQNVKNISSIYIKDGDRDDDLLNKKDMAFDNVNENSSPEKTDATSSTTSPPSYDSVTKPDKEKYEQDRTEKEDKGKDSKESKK
T1 sequence (Q07699 19-218, further chain): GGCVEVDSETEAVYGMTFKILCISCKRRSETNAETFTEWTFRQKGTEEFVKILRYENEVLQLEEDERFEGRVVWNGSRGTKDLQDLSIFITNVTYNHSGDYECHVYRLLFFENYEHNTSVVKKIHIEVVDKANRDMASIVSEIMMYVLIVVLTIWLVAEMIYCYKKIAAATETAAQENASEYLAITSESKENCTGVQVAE
Description: Toxin-550 peptides were assayed on the IonFlux HT using standard running conditions for measurement of NaV 1.7 current. Briefly, HEK293 cells overexpressing the alpha and beta-1 subunits of human Nav1.7 (PrecisION, Millipore) were trypsinized, brought up in serum-free media and allowed to shake at room temperature for 30 minutes. Compounds were diluted into standard extracellular Ringer's solution (ECS) at desired concentration. Cells were washed once with ECS and then brought up in ECS at a concentration of 4 million cells/mL. IonFlux HT plate was set up according to standard protocols.
NaV 1.7 current was measured on the IonFlux according to the following voltage step protocol:
1. The cells were held at −90 mV with a period of 10 seconds.
2. The cells were stepped from −90 mV to −120 mV for 100 ms. • a. then to −10 mV for 30 ms and • b. then back to −90 mV for 30 ms.
Baseline current was allowed to stabilize for 5 minutes, then a control baseline (ECS only) was established. Compound was applied for 20 minutes, and then a positive control (peptide NaV1.7 blocker) was applied.
Leak subtraction was then performed on the data and the resulting currents are analyzed as follows: • 1. […] For a given time (e.g. 10 minutes post-compound addition), percent block was calculated as I/Imax.

[1] = In vivo pharmacokinetic (PK) study for half-life extension; settings: mouse, plasma, mice
Description: Lipid conjugated relaxin or other therapeutic agents are dosed in mice using sc, po, iv dosing. Plasma levels of TA are determined by ms, lgr7, glp1r and/or gcgr activation at different time points (e.g., i.v. PK 5 min, 0.5 h, 1 h, 2 h 4 h, 8 h, 24 h, 48 h, 96 h & 144 h and s.c. PK. 15 min, 0.5 h, 1 h, 2 h, 4 h, 8 h, 24 h, 48 h, 96 h and 144 h). Select PK data are shown in FIGS. 11, 12, and 15, and Table 2.

LGR7 = target: T2, LGR7 (Homo sapiens, UniProt Q9HBX9); assay: LGR7 CRE-Luc reporter gene assay (relaxin bioactivity); type: cell-based; settings: HEK293T cells expressing LGR7 and CRE-Luc; EC50 after non-linear curve fitting
T2 construct: expressed in transfected cells
T2 sequence (Q9HBX9 1-757): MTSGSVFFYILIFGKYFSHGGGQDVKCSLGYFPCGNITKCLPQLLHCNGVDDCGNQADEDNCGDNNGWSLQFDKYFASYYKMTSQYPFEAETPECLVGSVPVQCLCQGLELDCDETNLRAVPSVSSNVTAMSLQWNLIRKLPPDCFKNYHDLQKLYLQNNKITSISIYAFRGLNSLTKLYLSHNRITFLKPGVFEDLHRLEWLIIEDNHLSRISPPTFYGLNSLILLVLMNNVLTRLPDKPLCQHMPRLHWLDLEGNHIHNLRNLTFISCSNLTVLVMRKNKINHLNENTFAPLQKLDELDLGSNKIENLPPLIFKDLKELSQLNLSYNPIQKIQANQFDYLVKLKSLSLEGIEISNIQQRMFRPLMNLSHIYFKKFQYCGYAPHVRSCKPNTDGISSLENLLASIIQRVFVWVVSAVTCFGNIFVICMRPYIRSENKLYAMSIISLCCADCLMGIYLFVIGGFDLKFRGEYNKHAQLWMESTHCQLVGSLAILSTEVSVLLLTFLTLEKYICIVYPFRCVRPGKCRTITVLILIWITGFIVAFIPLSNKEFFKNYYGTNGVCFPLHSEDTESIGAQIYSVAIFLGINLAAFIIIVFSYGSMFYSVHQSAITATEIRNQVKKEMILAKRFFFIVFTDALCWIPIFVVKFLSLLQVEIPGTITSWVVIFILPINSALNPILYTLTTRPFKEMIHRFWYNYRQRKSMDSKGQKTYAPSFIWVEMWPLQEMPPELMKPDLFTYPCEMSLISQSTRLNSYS
Description: Relaxin 2 signals through leucine-rich repeat-containing GPCRs (i.e. LGR7 (RFXR1)). The bioactivity of wild-type relaxin peptides was determined based on the stimulation of adenylate cyclase activity in HEK293T cells stably expressing recombinant LGR7. Stable LGR7 expressing cells were maintained in Dulbecco's modified Eagle's medium/F-12 media supplemented with […] Zeocin (Invitrogen). A cyclic AMP responsive element driven luciferase (CRE-Luc) reporter line was generated by lentiviral transduction of these LGR7 expressing HEK293T cells with CRE-Luc lentivirus (Qiagen) and selected with puromycine (2 μg/mL) for two weeks. A reporter gene assay was used to detect cAMP levels and LGR7 activation by relaxin.
Assay detail: HEK293T cells expressing LGR7 and CRE-Luc are seeded at a density of 5×10^3 cells per well in 50 μl of Dulbecco's modified Eagle's medium/F-12 medium containing 10% FBS in 384-well solid bottom white plates. Cells are pre-incubated at 37° C. for overnight. Different concentrations of relaxin peptides (from 0.01 nM to 1000 nM) were added in triplicate, incubated for 18 hours and luciferase activity was detected by adding […] of Bright Glo (Promega). Luminescence was recorded on Envision (Perkin Elmer). EC50 is calculated after non-linear curve fitting (see FIG. 3 for relaxin H2 dose response curve).

[2] = iv, i.v., read-out: Half-life (hours) i.v. (converted)
[3] = sc, s.c., read-out: Half-life (hours) s.c. (converted)

Molecule: 550-4-GSCGG-FA1: 550-4-GSCGG (SEQ ID NO: 28) with lipid FA1 (GSCGGECIGMFKSCDPENDKCCKGRTCSRKHRWCKYKL; cysteine pairing not given here; also: lipid FA1)
- Activity: % block at 100 nM (human Nav1.7): 85% block

Molecule: 550-: Toxin-550 peptide, probably SEQ ID NO: 30 (ECIGMFKSCDPENDKCCKGRTCSRKHRWCKYKL) [Entry 550-]
- Activity: % block at 100 nM (human Nav1.7): 87% block

Molecule: CC[C@H](C)[C@@H]1NC(=O)[C@H](C)NC(=O)[C@H]([C@@H](C)CC)NC(=O)[C@H](CCC(N)=O)NC(=O)[C@H](C)NC(=O)[C@H](CCCNC(=N)N)NC(=O)[C@H](C(C)C)NC(=O)[C@H](CC(C)C)NC(=O)[C@H](CCC(=O)O)NC(=O)[C@H](CCCNC(=N)N)NC(=O)CNC(=O)[C@@H](NC(=O)[C@H](CC(C)C)NC(=O)[C@H](CCCCN)NC(=O)[C@@H](NC(=O)[C@@H](NC(=O)[C@H](CCC(=O)O)NC(=O)[C@H](CCC(=O)O)NC(=O)[C@H](CCSC)NC(=O)[C@H](Cc2c[nH]c3ccccc23)NC(=O)[C@H](CO)NC(=O)[C@H](C)N)C(C)C)[C@@H](C)CC)CSSC[C@@H]2NC(=O)[C@@H](NC(=O)[C@H](CCCCN)NC(=O)[C@H](CC(N)=O)NC(=O)[C@H](C)NC(=O)[C@H](CC(C)C)NC(=O)[C@H](C)NC(=O)[C@H](CO)NC(=O)[C@H](Cc3ccc(O)cc3)NC(=O)[C@H](CC(C)C)NC(=O)[C@@H](N)CSCC(=O)NCCOCCOCCC(=O)NCCOCCOCCC(=O)NCCCC[C@H](NC(=O)CCCCCCCCCCCCCCCCC(=O)O)C(=O)O)CSSC[C@H](NC(=O)CNC(=O)[C@H](C(C)C)NC(=O)[C@H](Cc3c[nH]cn3)NC2=O)C(=O)N[C@@H]([C@@H](C)O)C(=O)N[C@@H](CCCCN)C(=O)N[C@@H](CCCNC(=N)N)C(=O)N[C@@H](CO)C(=O)N[C@@H](CC(C)C)C(=O)N[C@@H](C)C(=O)N[C@@H](CCCNC(=N)N)C(=O)N[C@@H](Cc2ccccc2)C(=O)N[C@H](C(=O)O)CSSC[C@@H](C(=O)NCC(=O)N[C@@H](CCSC)C(=O)N[C@@H](CO)C(=O)N[C@H](C(=O)N[C@@H](Cc2c[nH]c3ccccc23)C(=O)N[C@@H](CO)C(=O)O)[C@@H](C)O)NC1=O [Relaxin-B-D1A, A-Q1C-FA2]
- half-life [1, 2]: 3.5 h
- half-life [1, 3]: 7.8 h

Molecule: CCCCCCCCCCCCCC(=O)NCCOCCOCCNC(=O)CSC[C@H](NC(=O)[C@H](Cc1c[nH]c2ccccc12)NC(=O)[C@@H](NC(=O)[C@H](CO)NC(=O)[C@H](CCSC)NC(=O)CNC(=O)[C@@H]1CSSC[C@@H](C(=O)O)NC(=O)[C@H](Cc2ccccc2)NC(=O)[C@H](CCCNC(=N)N)NC(=O)[C@H](C)NC(=O)[C@H](CC(C)C)NC(=O)[C@H](CO)NC(=O)[C@H](CCCNC(=N)N)NC(=O)[C@H](CCCCN)NC(=O)[C@H]([C@@H](C)O)NC(=O)[C@@H]2CSSC[C@H](NC(=O)[C@H](CCCCN)NC(=O)[C@H](CC(N)=O)NC(=O)[C@H](C)NC(=O)[C@H](CC(C)C)NC(=O)[C@H](C)NC(=O)[C@H](CO)NC(=O)[C@H](Cc3ccc(O)cc3)NC(=O)[C@H](CC(C)C)NC(=O)[C@@H](N)CCC(N)=O)C(=O)N[C@@H](CSSC[C@H](NC(=O)[C@H](CC(C)C)NC(=O)[C@H](CCCCN)NC(=O)[C@@H](NC(=O)[C@@H](NC(=O)[C@H](CCC(=O)O)NC(=O)[C@H](CCC(=O)O)NC(=O)[C@H](CCSC)NC(=O)[C@H](Cc3c[nH]c4ccccc34)NC(=O)[C@H](CO)NC(=O)[C@H](C)N)C(C)C)[C@@H](C)CC)C(=O)NCC(=O)N[C@@H](CCCNC(=N)N)C(=O)N[C@@H](CCC(=O)O)C(=O)N[C@@H](CC(C)C)C(=O)N[C@@H](C(C)C)C(=O)N[C@@H](CCCNC(=N)N)C(=O)N[C@@H](C)C(=O)N[C@@H](CCC(N)=O)C(=O)N[C@@H]([C@@H](C)CC)C(=O)N[C@@H](C)C(=O)N[C@@H]([C@@H](C)CC)C(=O)N1)C(=O)N[C@@H](Cc1c[nH]cn1)C(=O)N[C@@H](C(C)C)C(=O)NCC(=O)N2)[C@@H](C)O)C(=O)O [Relaxin-B-D1AS29C-FA1]
- half-life [1, 2]: 0.5 h
- half-life [1, 3]: 1.2 h

Molecule: CCCCCCCCCCCCCC(=O)NCCOCCOCCNC(=O)CSC[C@H](NC(=O)[C@H](Cc1c[nH]c2ccccc12)NC(=O)[C@@H](NC(=O)[C@H](CO)NC(=O)[C@H](CCSC)NC(=O)CNC(=O)[C@@H]1CSSC[C@@H](C(=O)O)NC(=O)[C@H](Cc2ccccc2)NC(=O)[C@H](CCCNC(=N)N)NC(=O)[C@H](C)NC(=O)[C@H](CC(C)C)NC(=O)[C@H](CO)NC(=O)[C@H](CCCNC(=N)N)NC(=O)[C@H](CCCCN)NC(=O)[C@H]([C@@H](C)O)NC(=O)[C@@H]2CSSC[C@H](NC(=O)[C@H](CCCCN)NC(=O)[C@H](CC(N)=O)NC(=O)[C@H](C)NC(=O)[C@H](CC(C)C)NC(=O)[C@H](C)NC(=O)[C@H](CO)NC(=O)[C@H](Cc3ccc(O)cc3)NC(=O)[C@H](CC(C)C)NC(=O)[C@@H](N)CCC(N)=O)C(=O)N[C@@H](CSSC[C@H](NC(=O)[C@H](CC(C)C)NC(=O)[C@H](CCCCN)NC(=O)[C@@H](NC(=O)[C@@H](NC(=O)[C@H](CCC(=O)O)NC(=O)[C@H](CCC(=O)O)NC(=O)[C@H](CCSC)NC(=O)[C@H](Cc3c[nH]c4ccccc34)NC(=O)[C@H](CO)NC(=O)[C@H](CC(=O)O)NC(=O)CNC(=O)CNC(=O)[C@H](CO)NC(=O)CNC(=O)[C@H](CCC(N)=O)NC(=O)[C@H](Cc3ccccc3)NC(=O)[C@H](Cc3ccc(O)cc3)NC(=O)[C@H](CC(C)C)NC(=O)[C@H](CC(N)=O)NC(=O)[C@H](CCC(=O)O)NC(=O)[C@H](Cc3c[nH]cn3)NC(=O)[C@H](Cc3c[nH]cn3)NC(=O)[C@H](Cc3c[nH]cn3)NC(=O)[C@H](Cc3c[nH]cn3)NC(=O)[C@H](Cc3c[nH]cn3)NC(=O)[C@H](Cc3c[nH]cn3)NC(=O)[C@H](Cc3c[nH]cn3)NC(=O)[C@@H](N)Cc3c[nH]cn3)C(C)C)[C@@H](C)CC)C(=O)NCC(=O)N[C@@H](CCCNC(=N)N)C(=O)N[C@@H](CCC(=O)O)C(=O)N[C@@H](CC(C)C)C(=O)N[C@@H](C(C)C)C(=O)N[C@@H](CCCNC(=N)N)C(=O)N[C@@H](C)C(=O)N[C@@H](CCC(N)=O)C(=O)N[C@@H]([C@@H](C)CC)C(=O)N[C@@H](C)C(=O)N[C@@H]([C@@H](C)CC)C(=O)N1)C(=O)N[C@@H](Cc1c[nH]cn1)C(=O)N[C@@H](C(C)C)C(=O)NCC(=O)N2)[C@@H](C)O)C(=O)O [Tev-Relaxin-B-S29C-FA1]
- EC50 (LGR7): 1 nM
